In paper doi:10.1101/2021.06.07.447357:
Read-outs that look alike come from different tables or passages of the source.

Key:
[1] = target: Recombinant Tic40s with a carboxyl-terminal histidine tag (40 kDa form) (Brassica napus); test: AUC
[2] = target: Recombinant Tic40s with a carboxyl-terminal histidine tag (40 kDa form) (Brassica napus); test: AUC; remark: listed apart in the source
[3] = target: 31 kDa recombinant Tic40s form (Brassica napus); test: dynamic light scattering
[4] = target: 31 kDa recombinant Tic40s form (Brassica napus); test: dynamic light scattering; remark: listed apart in the source

stoichiometry N [1]	stoichiometry N [2]	stoichiometry N [3]	stoichiometry N [4]	Substance
3	4			Recombinant Tic40s with a carboxyl-terminal histidine tag (40 kDa form) (domain or fragment)
		4	2	31 kDa recombinant Tic40s form (domain or fragment)
